# According to paper PMC7385124, “The molecular basis of thioalcohol production in human body odour” (Scientific Reports, 2020):
# Columns and labels:
# [1] = test system: CCCC(C)(CCO)SC[C@H](N)C(=O)O; experiment: purified protein, by the assay type; set-up: DTNB thiol release, A412, continuous steady-state Michaelis-Menten kinetics of C-S lyase; details: pH 7.8; 37.0 °C
# Procedure: (§1) In vitro activity assays were performed using an Epoch2 (BioTek) plate reader. Reactions were measured in 96-well plate. A continuous assay, described previously[3] was used to measure 3M3SH. A 200 μL reaction contained […], variable amounts of substrate and 0.4 mM DTNB in 50 mM KPi and 200 mM NaCl, pH 7.8. […] Each reaction was incubated at 37 °C for 30 min. Release of the thiol 3M3SH was measured by reaction with DTNB to form 2-nitro-5-thiobenzoic acid (TNB) which is measured at A412 nm every minute. Background rate of DTNB decomposition was subtracted in each assay. Michaelis–Menten plots were derived from 6 to 8 substrate concentrations using Prism Version 5.01 (GraphPad) to calculate the Kcat and KM. Enzyme concentrations were assumed to be the concentration of PLP-bound enzyme with two active sites per enzyme. Velocity curves for all in vitro kinetics are shown in the supplementary information (Supplementary Information Figures S10–S12). Next, we cloned and overexpressed genes encoding a representative range of PatB-type enzymes, with two MetC proteins as controls (Fig. 2, denoted by coloured dots) and purified the proteins for biochemical analysis.
# [2] = test system: CC(C)(CCO)SC[C@H](N)C(=O)O; experiment: purified protein, by the assay type; set-up: DTNB thiol release, A412, continuous steady-state Michaelis-Menten kinetics of C-S lyase; details: pH 7.8; 37.0 °C
# Procedure: as §1
# [3] = biological target: Staphylococcus hominis PatB (cysteine-thiol lyase, PLP-dependent C-S lyase) (Staphylococcus hominis); experiment: crystal structure; ShPatB at 15 mg/mL in 20 mM Tris pH 8, 50 mM NaCl; hanging drops, 4% Tacsimate pH 6, 12% PEG 3,350, room temperature; without and with 20 mM L-cycloserine
stoichiometry N [3],Substance,Km [1] [µM],kcat [1] [s⁻¹],kcat/Km [1] [M⁻¹ s⁻¹],Km [2] [µM],kcat [2] [s⁻¹],kcat/Km [2] [M⁻¹ s⁻¹]
–,EcTnaA (Escherichia coli K-12),2150,0.051,23.7,3300,0.0117,3.33
2,"Staphylococcus hominis PatB (cysteine-thiol lyase, PLP-dependent C-S lyase) (enzyme)",–,–,–,–,–,–
